Source: US20050187160A1
Values joined by “and” are separate entries in the source; they are usually repeats but may differ in a detail not shown here. Equal entries are not always repeated. Each block holds one substance with its values, some of them ahead of it.

Biological target: T1, rabbit GH receptor (full length, stably expressed on murine FDC-P1 cells, GH-R4 line) (rabbit) (UniProt P19941)
T1 sequence (looked up): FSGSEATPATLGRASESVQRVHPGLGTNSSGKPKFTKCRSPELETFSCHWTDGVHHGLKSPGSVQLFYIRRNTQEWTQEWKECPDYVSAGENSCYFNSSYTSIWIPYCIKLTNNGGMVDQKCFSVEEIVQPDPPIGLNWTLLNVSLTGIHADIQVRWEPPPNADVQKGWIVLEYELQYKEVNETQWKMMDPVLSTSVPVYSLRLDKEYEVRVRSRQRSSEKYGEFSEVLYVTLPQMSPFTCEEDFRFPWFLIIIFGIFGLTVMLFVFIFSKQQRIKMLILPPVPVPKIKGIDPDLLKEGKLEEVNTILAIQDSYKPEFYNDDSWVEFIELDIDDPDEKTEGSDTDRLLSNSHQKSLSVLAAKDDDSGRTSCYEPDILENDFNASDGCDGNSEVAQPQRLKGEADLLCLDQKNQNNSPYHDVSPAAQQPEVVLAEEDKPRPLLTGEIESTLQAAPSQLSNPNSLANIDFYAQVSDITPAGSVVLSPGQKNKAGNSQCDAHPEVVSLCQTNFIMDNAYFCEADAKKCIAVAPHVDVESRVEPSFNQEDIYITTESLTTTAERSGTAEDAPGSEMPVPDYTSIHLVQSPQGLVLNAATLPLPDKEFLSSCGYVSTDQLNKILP
Test: cell-based or functional assay

Substance: PEG-S144C hGH (mono-PEGylated S144C) (from UniProt P01241 27-217) (ligand)
- EC50, individual experiment, cell proliferation assay (Example 1): 40 ng/mL and 45 ng/mL
- mean EC50 (molar form), cell proliferation assay (Example 1): 2 nM

Substance: hGH cysteine mutein T3C, disulfide-linked homodimer (from UniProt P01241 27-217) (ligand)
- Mean EC50, proliferation of FDC-P1 cells expressing the rabbit GH receptor (GH-R4), MTS: 1.4 ng/mL

Substance: hGH cysteine mutein T148C (from UniProt P01241 27-217) (ligand)
- EC50, individual experiment (T148C-lotA), proliferation of FDC-P1 cells expressing the rabbit GH receptor: 0.4 ng/mL and 0.5 ng/mL
- EC50, individual experiment (T148C-lotB), proliferation of FDC-P1 cells expressing the rabbit GH receptor: 1.5 ng/mL and 1.9 ng/mL and 3.1 ng/mL
- Mean EC50 (T148C-lotA), proliferation of FDC-P1 cells expressing the rabbit GH receptor (GH-R4), MTS: 0.5 ng/mL
- Mean EC50 (T148C-lotB), proliferation of FDC-P1 cells expressing the rabbit GH receptor (GH-R4), MTS: 2.5 ng/mL

Substance: wild-type recombinant human growth hormone (rhGH) secreted to the E. coli periplasm from stII-hGH (from UniProt P01241 27-217) (ligand)
- EC50, individual experiment, proliferation of FDC-P1 cells expressing the rabbit GH receptor: 0.8 ng/mL and 1.1 ng/mL
- Mean EC50, proliferation of FDC-P1 cells expressing the rabbit GH receptor (GH-R4), MTS: 0.8 ng/mL

Further lines, results first:

- mean EC50 (molar form), cell proliferation assay (Example 1): 0.07 nM
Substance: PEG-T3C hGH (mono-PEGylated T3C monomer) (from UniProt P01241 27-217) (ligand)

- EC50, individual experiment (second value), proliferation of FDC-P1 cells expressing the rabbit GH receptor: 1.1 ng/mL
- Mean EC50, proliferation of FDC-P1 cells expressing the rabbit GH receptor (GH-R4), MTS: 1.6 ng/mL
Substance: hGH cysteine mutein S144C (from UniProt P01241 27-217) (ligand)
